Results taken from US20170015742A1 (published 2017).

B1: 4G8.5_GS_3E2.1 (PR-1610560) (bispecific antibody, human IgG1, kappa, L234A L235A)
heavy: EIQLVQSGSELKKPGASVKVSCKASGYTFTNYGMYWVRQAPGQGLEYMGWINTETGKPTYADDFKGRFVFSLDTSVSTAYLQISSLKAEDTAVYFCARTNYYYRSYIFYFDYWGQGTMVTVSSGGGGSGGGGSEVQLVQSGAEVKKPGSSVKVSCKASGYTFTESYMYWVKQAPGQGLELIGRIDPEDGSTDYVEKFKNKATLTADKSTSTAYMELSSLRSEDTAVYFCARFGARSYFYPMDAWGQGTTVTVSSASTKGPSVFPLAPSSKSTSGGTAALGCLVKDYFPEPVTVSWNSGALTSGVHTFPAVLQSSGLYSLSSVVTVPSSSLGTQTYICNVNHKPSNTKVDKKVEPKSCDKTHTCPPCPAPEAAGGPSVFLFPPKPKDTLMISRTPEVTCVVVDVSHEDPEVKFNWYVDGVEVHNAKTKPREEQYNSTYRVVSVLTVLHQDWLNGKEYKCKVSNKALPAPIEKTISKAKGQPREPQVYTLPPSREEMTKNQVSLTCLVKGFYPSDIAVEWESNGQPENNYKTTPPVLDSDGSFFLYSKLTVDKSRWQQGNVFSCSVMHEALHNAYTQKSLSLSPGK
light: ATQLTQSPSLSASVGDRVTITCRASESVSTHMHWYQQKPGKQPKLLIYGASNLESGVPSRFSGSGSGTDFTLTISSLQPEDFATYFCQQSWNDPFTFGQGTKLEIKGGSGGGGSGGETVLTQSPATLSLSPGERATLSCRASESVSTLMHWYQQKPGQQPRLLIYGASNLESGVPARFSGSGSGTDFTLTISSLEPEDFAVYFCQQSWNDPWTFGGGTKVEIKRTVAAPSVFIFPPSDEQLKSGTASVVCLLNNFYPREAKVQWKVDNALQSGNSQESVTEQDSKDSTYSLSSTLTLSKADYEKHKVYACEVTHQGLSSPVTKSFNRGEC
notes: DVD-Ig: outer hBDB-4G8.5 (VEGF), inner hBFU-3E2.1 (PDGF), linkers GS-H10/GS-L10(dR); Human IgG1 L234A, L235A, H435A with kappa
B2: 4G8.5_GS_9E8.4 (PR-1612489) (bispecific antibody, human IgG1, kappa, L234A L235A)
heavy: EIQLVQSGSELKKPGASVKVSCKASGYTFTNYGMYWVRQAPGQGLEYMGWINTETGKPTYADDFKGRFVFSLDTSVSTAYLQISSLKAEDTAVYFCARTNYYYRSYIFYFDYWGQGTMVTVSSGGGGSGGGGSEVTLRESGPALVKPTQTLTLTCTFSGFSLSTYGMGVGWIRQPPGKALEWLANIWWDDDKYYNPSLKNRLTISKDTSKNQVVLTMTNMDPVDTATYYCARIESIGTTYSFDYWGQGTMVTVSSASTKGPSVFPLAPSSKSTSGGTAALGCLVKDYFPEPVTVSWNSGALTSGVHTFPAVLQSSGLYSLSSVVTVPSSSLGTQTYICNVNHKPSNTKVDKKVEPKSCDKTHTCPPCPAPEAAGGPSVFLFPPKPKDTLMISRTPEVTCVVVDVSHEDPEVKFNWYVDGVEVHNAKTKPREEQYNSTYRVVSVLTVLHQDWLNGKEYKCKVSNKALPAPIEKTISKAKGQPREPQVYTLPPSREEMTKNQVSLTCLVKGFYPSDIAVEWESNGQPENNYKTTPPVLDSDGSFFLYSKLTVDKSRWQQGNVFSCSVMHEALHNAYTQKSLSLSPGK
light: ATQLTQSPSLSASVGDRVTITCRASESVSTHMHWYQQKPGKQPKLLIYGASNLESGVPSRFSGSGSGTDFTLTISSLQPEDFATYFCQQSWNDPFTFGQGTKLEIKGGSGGGGSGGEFVLTQSPGTLSLSPGERATLSCERSSGDIGDSYVSWYQQKPGQAPRLVIYADDQRPSGIPDRFSGSGSGTDFTLTISRLEPEDFAVYYCQSYDINIDIVFGGGTKVEIKRTVAAPSVFIFPPSDEQLKSGTASVVCLLNNFYPREAKVQWKVDNALQSGNSQESVTEQDSKDSTYSLSSTLTLSKADYEKHKVYACEVTHQGLSSPVTKSFNRGEC
notes: DVD-Ig: outer hBDB-4G8.5 (VEGF), inner hBDI-9E8.4 (PDGF), linkers GS-H10/GS-L10(dR); Human IgG1 L234A, L235A, H435A with kappa
B3: 9E8.4-SL-4G8.3 (PR-1563998) (bispecific antibody, human IgG1, kappa, L234A L235A)
heavy: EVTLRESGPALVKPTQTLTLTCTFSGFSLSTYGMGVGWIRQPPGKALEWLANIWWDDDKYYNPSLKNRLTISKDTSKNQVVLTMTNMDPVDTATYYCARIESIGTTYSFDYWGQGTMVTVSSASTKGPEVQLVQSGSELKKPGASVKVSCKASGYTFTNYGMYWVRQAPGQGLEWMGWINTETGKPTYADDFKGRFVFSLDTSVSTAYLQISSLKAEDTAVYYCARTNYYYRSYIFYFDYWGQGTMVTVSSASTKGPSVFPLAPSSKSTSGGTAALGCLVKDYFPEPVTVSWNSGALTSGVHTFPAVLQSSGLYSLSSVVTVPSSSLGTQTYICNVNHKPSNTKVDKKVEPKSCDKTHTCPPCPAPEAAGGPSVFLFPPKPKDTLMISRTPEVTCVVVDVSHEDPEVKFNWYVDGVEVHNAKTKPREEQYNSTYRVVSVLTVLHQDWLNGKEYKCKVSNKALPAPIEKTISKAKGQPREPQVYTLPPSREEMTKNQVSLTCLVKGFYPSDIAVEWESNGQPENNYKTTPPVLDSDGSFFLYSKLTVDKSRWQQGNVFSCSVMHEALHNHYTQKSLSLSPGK
light: EFVLTQSPGTLSLSPGERATLSCERSSGDIGDSYVSWYQQKPGQAPRLVIYADDQRPSGIPDRFSGSGSGTDFTLTISRLEPEDFAVYYCQSYDINIDIVFGGGTKVEIKGTVAAPSVFIFPPDTVLTQSPATLSLSPGERATLSCRASESVSTHMHWYQQKPGQAPRLLIYGASNLESGVPARFSGSGSGTDFTLTISSLEPEDFAVYFCQQSWNDPFTFGQGTKLEIKRTVAAPSVFIFPPSDEQLKSGTASVVCLLNNFYPREAKVQWKVDNALQSGNSQESVTEQDSKDSTYSLSSTLTLSKADYEKHKVYACEVTHQGLSSPVTKSFNRGEC
notes: DVD-Ig; outer hBDI-9E8.4 (PDGF), linkers HG-short/LK-long, inner hBDB-4G8.3 (VEGF); human IgG1 L234A, L235A / kappa
B4: 9E8.4-SS-4G8.3 (PR-1563990) (bispecific antibody, human IgG1, kappa, L234A L235A)
heavy: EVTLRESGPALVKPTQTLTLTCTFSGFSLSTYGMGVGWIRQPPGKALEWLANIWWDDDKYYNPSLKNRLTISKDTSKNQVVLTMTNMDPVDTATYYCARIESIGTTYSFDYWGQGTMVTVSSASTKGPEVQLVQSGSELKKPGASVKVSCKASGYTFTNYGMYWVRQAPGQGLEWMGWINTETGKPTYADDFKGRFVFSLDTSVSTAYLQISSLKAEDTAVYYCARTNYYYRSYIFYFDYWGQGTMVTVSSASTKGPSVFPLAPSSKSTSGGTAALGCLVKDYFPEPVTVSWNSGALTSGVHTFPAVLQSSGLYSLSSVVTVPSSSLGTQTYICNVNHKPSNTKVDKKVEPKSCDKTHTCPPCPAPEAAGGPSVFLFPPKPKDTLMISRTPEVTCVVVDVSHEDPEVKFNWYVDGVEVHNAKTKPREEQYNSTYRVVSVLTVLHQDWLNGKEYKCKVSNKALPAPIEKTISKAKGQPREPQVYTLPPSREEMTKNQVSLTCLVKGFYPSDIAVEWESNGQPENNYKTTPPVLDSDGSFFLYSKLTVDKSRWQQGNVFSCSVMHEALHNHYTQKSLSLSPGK
light: EFVLTQSPGTLSLSPGERATLSCERSSGDIGDSYVSWYQQKPGQAPRLVIYADDQRPSGIPDRFSGSGSGTDFTLTISRLEPEDFAVYYCQSYDINIDIVFGGGTKVEIKGTVAAPDTVLTQSPATLSLSPGERATLSCRASESVSTHMHWYQQKPGQAPRLLIYGASNLESGVPARFSGSGSGTDFTLTISSLEPEDFAVYFCQQSWNDPFTFGQGTKLEIKRTVAAPSVFIFPPSDEQLKSGTASVVCLLNNFYPREAKVQWKVDNALQSGNSQESVTEQDSKDSTYSLSSTLTLSKADYEKHKVYACEVTHQGLSSPVTKSFNRGEC
notes: DVD-Ig; outer hBDI-9E8.4 (PDGF), linkers HG-short/LK-short, inner hBDB-4G8.3 (VEGF); human IgG1 L234A, L235A / kappa
B5: 9E8.4-LS-4G8.3 (PR-1564009) (bispecific antibody, human IgG1, kappa, L234A L235A)
heavy: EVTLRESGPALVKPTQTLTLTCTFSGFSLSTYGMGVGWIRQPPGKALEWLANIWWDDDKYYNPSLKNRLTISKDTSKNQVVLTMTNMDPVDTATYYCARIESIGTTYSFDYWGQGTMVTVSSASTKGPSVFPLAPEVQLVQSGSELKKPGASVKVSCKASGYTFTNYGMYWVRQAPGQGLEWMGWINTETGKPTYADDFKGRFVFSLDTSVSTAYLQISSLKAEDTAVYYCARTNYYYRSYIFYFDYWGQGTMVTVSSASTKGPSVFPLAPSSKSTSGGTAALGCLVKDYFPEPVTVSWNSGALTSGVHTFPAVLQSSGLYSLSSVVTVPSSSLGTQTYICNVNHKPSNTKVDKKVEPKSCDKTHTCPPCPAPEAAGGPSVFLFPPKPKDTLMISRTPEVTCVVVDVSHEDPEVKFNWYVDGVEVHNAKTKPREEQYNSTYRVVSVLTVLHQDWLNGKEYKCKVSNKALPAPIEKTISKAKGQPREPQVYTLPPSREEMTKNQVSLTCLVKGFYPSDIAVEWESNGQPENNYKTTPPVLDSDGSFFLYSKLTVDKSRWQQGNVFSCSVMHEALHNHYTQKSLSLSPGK
light: B4 light
notes: DVD-Ig; outer hBDI-9E8.4 (PDGF), linkers HG-long/LK-short, inner hBDB-4G8.3 (VEGF); human IgG1 L234A, L235A / kappa
B6: 9E8.4-GS-4G8.3 (PR-1563988) (bispecific antibody, human IgG1, kappa, L234A L235A)
heavy: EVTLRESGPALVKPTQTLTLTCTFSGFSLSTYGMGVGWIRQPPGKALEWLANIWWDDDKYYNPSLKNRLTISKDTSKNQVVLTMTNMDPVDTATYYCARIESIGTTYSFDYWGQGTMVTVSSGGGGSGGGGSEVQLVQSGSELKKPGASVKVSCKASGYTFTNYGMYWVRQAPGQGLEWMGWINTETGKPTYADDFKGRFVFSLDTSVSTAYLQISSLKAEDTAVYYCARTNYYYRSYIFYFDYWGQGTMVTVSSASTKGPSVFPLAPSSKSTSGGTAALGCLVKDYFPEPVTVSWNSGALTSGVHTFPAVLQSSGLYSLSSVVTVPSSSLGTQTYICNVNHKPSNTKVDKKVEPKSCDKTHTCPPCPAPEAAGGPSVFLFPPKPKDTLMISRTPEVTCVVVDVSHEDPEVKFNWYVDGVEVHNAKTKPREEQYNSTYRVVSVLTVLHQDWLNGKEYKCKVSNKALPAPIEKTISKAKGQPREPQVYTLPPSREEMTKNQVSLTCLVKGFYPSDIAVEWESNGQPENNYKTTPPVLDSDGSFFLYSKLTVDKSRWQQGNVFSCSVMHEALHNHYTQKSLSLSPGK
light: EFVLTQSPGTLSLSPGERATLSCERSSGDIGDSYVSWYQQKPGQAPRLVIYADDQRPSGIPDRFSGSGSGTDFTLTISRLEPEDFAVYYCQSYDINIDIVFGGGTKVEIKGGGSGGGGSGDTVLTQSPATLSLSPGERATLSCRASESVSTHMHWYQQKPGQAPRLLIYGASNLESGVPARFSGSGSGTDFTLTISSLEPEDFAVYFCQQSWNDPFTFGQGTKLEIKRTVAAPSVFIFPPSDEQLKSGTASVVCLLNNFYPREAKVQWKVDNALQSGNSQESVTEQDSKDSTYSLSSTLTLSKADYEKHKVYACEVTHQGLSSPVTKSFNRGEC
notes: DVD-Ig; outer hBDI-9E8.4 (PDGF), linkers GS-H10/GS-L10, inner hBDB-4G8.3 (VEGF); human IgG1 L234A, L235A / kappa

target: T1, VEGF-A (human, UniProt P15692 207-395); assay: Biacore SPR; DVD-Ig captured on anti-human Fc, antigen injected
T1 construct: also called hVEGF165
T1 sequence (P15692 other isoform, or with tags, fused parts or gaps limits assumed): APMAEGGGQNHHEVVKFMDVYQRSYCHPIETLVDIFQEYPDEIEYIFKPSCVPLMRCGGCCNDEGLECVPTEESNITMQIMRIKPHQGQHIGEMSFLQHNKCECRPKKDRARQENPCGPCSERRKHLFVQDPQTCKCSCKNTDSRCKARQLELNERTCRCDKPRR
In short: (§1)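 Antibodies or DVD-Ig molecules (1 μg/ml) were captured on an anti-human Fc CM5 surface, with antigen injected in solution and responses referenced to the capture-only surface. Rate constants came from a global 1:1 Langmuir fit, and KD = koff/kon.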

Binder	Kd [nM]	kon [M⁻¹ s⁻¹]
B1	0.0087	4.8e+06
B2	0.0085	5.4e+06

target: T2, PDGF-BB (human, UniProt P01127 82-190, limits assumed); assay: as above
T2 construct: also called human PDGF-BB; hPDGF-BB
T2 sequence (P01127 82-190 limits assumed): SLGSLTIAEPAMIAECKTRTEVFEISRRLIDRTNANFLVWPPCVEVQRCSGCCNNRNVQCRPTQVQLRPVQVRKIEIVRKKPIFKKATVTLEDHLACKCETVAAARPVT
In short: as §1

Binder	Kd [nM]	kon [M⁻¹ s⁻¹]
B1	0.013	4.1e+07
B2	0.028	5.8e+06

target: PDGF-BB (UniProt P01127 82-190); assay: SPR (Biacore), DVD-Ig captured by anti-human Fc, antigen in flow
Sequence (P01127 82-190): as the sequence (P01127 82-190 limits assumed) above
Description: (§2) For example, approximately 9000 RU of goat anti-human Fc specific polyclonal antibody (Thermo Fisher Scientific Inc., Rockford, Ill.) diluted in 10 mM sodium acetate (pH 4.5) is directly immobilized across a CM5 research grade biosensor chip using a standard amine coupling kit according to manufacturer's instructions and procedures at 25 μg/ml. Unreacted moieties on the biosensor surface were blocked with ethanolamine. For kinetic analysis, rate equations derived from the 1:1 Langmuir binding model were fitted simultaneously to multiple antigen injections (using global fit analysis) with the use of Scrubber 2 (BioLogic Software), Biacore Biaevaluation 4.0.1 software or Biacore T100 Evaluation software. Purified antibodies or DVD-Ig molecules were diluted in running buffer for capture across goat anti-human Fc reaction surfaces. Antibodies or DVD-Ig molecules to be captured as a ligand (1 μg/ml) were injected over reaction matrices at a flow rate of 10 μl/minute. During the assay, all measurements were referenced against the capture surface alone (i.e., with no captured antibody or DVD-Ig molecule). […] The equilibrium dissociation constant KD (M) of the reaction between antibodies and the target antigen was then calculated from the kinetic rate constants by the following formula: KD=Koff/Kₒₙ. Binding was recorded as a function of time and kinetic rate constants were calculated.

Binder	Kd [nM]	kon [M⁻¹ s⁻¹]
B3	0.019	1e+07
B4	0.02	1e+07
B5	0.02	1e+07
B6	0.02	1e+07

target: VEGF-A (UniProt P15692-4 27-191, limits assumed); assay: as above
Sequence (P15692 other isoform, or with tags, fused parts or gaps limits assumed): as the sequence (P15692 other isoform, or with tags, fused parts or gaps limits assumed) above
Description: as §2

Binder	Kd [nM]	kon [M⁻¹ s⁻¹]
B3	0.12	700000
B4	0.78	160000
B5	0.2	270000
B6	0.29	220000
